Usually koff stands for a measure of how fast the partners let go of each other.

The target in this assay is T1, human recombinant HMGB1 protein (high-mobility group box-1) (human, UniProt P09429 1-215).
T1 chain: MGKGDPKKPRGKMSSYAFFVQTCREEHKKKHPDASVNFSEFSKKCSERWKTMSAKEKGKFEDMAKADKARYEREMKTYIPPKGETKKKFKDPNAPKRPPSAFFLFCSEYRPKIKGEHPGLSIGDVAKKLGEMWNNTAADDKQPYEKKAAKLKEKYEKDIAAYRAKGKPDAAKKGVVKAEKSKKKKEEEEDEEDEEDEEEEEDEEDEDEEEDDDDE
Nature of the assay: SPR. In general terms: Surface plasmon resonance follows binding to a sensor surface in real time, without labels.

B1: lactoferrin-glycyrrhizin conjugate Lf-GL (1:15) (other)
chain: GRRRSVQWCAVSQPEATKCFQWQRNMRKVRGPPVSCIKRDSPIQCIQAIAENRADAVTLDGGFIYEAGLAPYKLRPVAAEVYGTERQPRTHYYAVAVVKKGGSFQLNELQGLKSCHTGLRRTAGWNVPIGTLRPFLNWTGPPEPIEAAVARFFSASCVPGADKGQFPNLCRLCAGTGENKCAFSSQEPYFSYSGAFKCLRDGAGDVAFIRESTVFEDLSDEAERDEYELLCPDNTRKPVDKFKDCHLARVPSHAVVARSVNGKEDAIWNLLRQAQEKFGKDKSPKFQLFGSPSGQKDLLFKDSAIGFSRVPPRIDSGLYLGSGYFTAIQNLRKSEEEVAARRARVVWCAVGEQELRKCNQWSGLSEGSVTCSSASTTEDCIALVLKGEADAMSLDGGYVYTAGKCGLVPVLAENYKSQQSSDPDPNCVDRPVEGYLAVAVVRRSDTSLTWNSVKGKKSCHTAVDRTAGWNIPMGLLFNQTGSCKFDEYFSQSCAPGSDPRSNLCALCIGDEQGENKCVPNSNERYYGYTGAFRCLAENAGDVAFVKDVTVLQNTDGNNNEAWAKDLKLADFALLCLDGKRKPVTEARSCHLAMAPNHAVVSRMDKVERLKQVLLHQQAKFGRNGSDCPDKFCLFQSETKNLLFNDNTECLARLHGKTTYEKYLGPQYVAGITNLKKCSTSPLLEACEFLRK
modifications: glycyrrhizin (oxidised with sodium periodate) coupled to amines of Lf by Schiff-base reaction and reduction with NaBH3CN; ratio Lf:GL 1:15 as printed; modified residues not identified
Take B1: the koff came to 0.000965 s⁻¹.

B2: lactoferrin-glycyrrhizin conjugate Lf-GL (1:4) (other)
chain: GRRRSVQWCAVSQPEATKCFQWQRNMRKVRGPPVSCIKRDSPIQCIQAIAENRADAVTLDGGFIYEAGLAPYKLRPVAAEVYGTERQPRTHYYAVAVVKKGGSFQLNELQGLKSCHTGLRRTAGWNVPIGTLRPFLNWTGPPEPIEAAVARFFSASCVPGADKGQFPNLCRLCAGTGENKCAFSSQEPYFSYSGAFKCLRDGAGDVAFIRESTVFEDLSDEAERDEYELLCPDNTRKPVDKFKDCHLARVPSHAVVARSVNGKEDAIWNLLRQAQEKFGKDKSPKFQLFGSPSGQKDLLFKDSAIGFSRVPPRIDSGLYLGSGYFTAIQNLRKSEEEVAARRARVVWCAVGEQELRKCNQWSGLSEGSVTCSSASTTEDCIALVLKGEADAMSLDGGYVYTAGKCGLVPVLAENYKSQQSSDPDPNCVDRPVEGYLAVAVVRRSDTSLTWNSVKGKKSCHTAVDRTAGWNIPMGLLFNQTGSCKFDEYFSQSCAPGSDPRSNLCALCIGDEQGENKCVPNSNERYYGYTGAFRCLAENAGDVAFVKDVTVLQNTDGNNNEAWAKDLKLADFALLCLDGKRKPVTEARSCHLAMAPNHAVVSRMDKVERLKQVLLHQQAKFGRNGSDCPDKFCLFQSETKNLLFNDNTECLARLHGKTTYEKYLGPQYVAGITNLKKCSTSPLLEACEFLRK
modifications: glycyrrhizin (oxidised with sodium periodate) coupled to amines of Lf by Schiff-base reaction and reduction with NaBH3CN; ratio Lf:GL 1:4 as printed; modified residues not identified
Take B2: the koff worked out at 0.00158 s⁻¹.

B3: lactoferrin-glycyrrhizin conjugate Lf-GL (1:10) (other)
chain: GRRRSVQWCAVSQPEATKCFQWQRNMRKVRGPPVSCIKRDSPIQCIQAIAENRADAVTLDGGFIYEAGLAPYKLRPVAAEVYGTERQPRTHYYAVAVVKKGGSFQLNELQGLKSCHTGLRRTAGWNVPIGTLRPFLNWTGPPEPIEAAVARFFSASCVPGADKGQFPNLCRLCAGTGENKCAFSSQEPYFSYSGAFKCLRDGAGDVAFIRESTVFEDLSDEAERDEYELLCPDNTRKPVDKFKDCHLARVPSHAVVARSVNGKEDAIWNLLRQAQEKFGKDKSPKFQLFGSPSGQKDLLFKDSAIGFSRVPPRIDSGLYLGSGYFTAIQNLRKSEEEVAARRARVVWCAVGEQELRKCNQWSGLSEGSVTCSSASTTEDCIALVLKGEADAMSLDGGYVYTAGKCGLVPVLAENYKSQQSSDPDPNCVDRPVEGYLAVAVVRRSDTSLTWNSVKGKKSCHTAVDRTAGWNIPMGLLFNQTGSCKFDEYFSQSCAPGSDPRSNLCALCIGDEQGENKCVPNSNERYYGYTGAFRCLAENAGDVAFVKDVTVLQNTDGNNNEAWAKDLKLADFALLCLDGKRKPVTEARSCHLAMAPNHAVVSRMDKVERLKQVLLHQQAKFGRNGSDCPDKFCLFQSETKNLLFNDNTECLARLHGKTTYEKYLGPQYVAGITNLKKCSTSPLLEACEFLRK
modifications: glycyrrhizin (oxidised with sodium periodate) coupled to amines of Lf by Schiff-base reaction and reduction with NaBH3CN; binding ratio Lf:GL 1:10 (1:9.6 by MALDI-TOF, 86,727.3 Da); modified residues not identified
As to B3, the koff was 0.000311 s⁻¹.

B4: lactoferrin human (Lf) (natural protein)
chain: GRRRSVQWCAVSQPEATKCFQWQRNMRKVRGPPVSCIKRDSPIQCIQAIAENRADAVTLDGGFIYEAGLAPYKLRPVAAEVYGTERQPRTHYYAVAVVKKGGSFQLNELQGLKSCHTGLRRTAGWNVPIGTLRPFLNWTGPPEPIEAAVARFFSASCVPGADKGQFPNLCRLCAGTGENKCAFSSQEPYFSYSGAFKCLRDGAGDVAFIRESTVFEDLSDEAERDEYELLCPDNTRKPVDKFKDCHLARVPSHAVVARSVNGKEDAIWNLLRQAQEKFGKDKSPKFQLFGSPSGQKDLLFKDSAIGFSRVPPRIDSGLYLGSGYFTAIQNLRKSEEEVAARRARVVWCAVGEQELRKCNQWSGLSEGSVTCSSASTTEDCIALVLKGEADAMSLDGGYVYTAGKCGLVPVLAENYKSQQSSDPDPNCVDRPVEGYLAVAVVRRSDTSLTWNSVKGKKSCHTAVDRTAGWNIPMGLLFNQTGSCKFDEYFSQSCAPGSDPRSNLCALCIGDEQGENKCVPNSNERYYGYTGAFRCLAENAGDVAFVKDVTVLQNTDGNNNEAWAKDLKLADFALLCLDGKRKPVTEARSCHLAMAPNHAVVSRMDKVERLKQVLLHQQAKFGRNGSDCPDKFCLFQSETKNLLFNDNTECLARLHGKTTYEKYLGPQYVAGITNLKKCSTSPLLEACEFLRK
Consider B4, for which the koff amounted to 0.0134 s⁻¹.

Values taken from PMC10200060 (2023).
